By Kd is commonly meant the constant that tells how readily two partners part at equilibrium. Higher therefore signals a looser complex.

Bridges are numbered along the chain shown (N, C = ends). Primed or numbered codes have the meaning given here. Where no end group is shown, it is not given here. [ ]: non-standard residue; d: D form. The star is where a group is joined. Biotin = O=C1N[C@H]2[C@H](CS[C@H]2CCCCC(=O)*)N1; hydroxy‑norleucine = hydroxy-norleucine residue; Lys(Me3) = C[N+](C)(C)CCCC[C@H](N)C(=O)O; Cit = NC(=O)NCCC[C@H](N)C(=O)O; PEG4″ = 4(ethylene glycol); Nle = CCCC[C@H](N)C(=O)O

Data on 33 molecules can be found in patent US20260151519A1 (AKTIS ONCOLOGY, published 2026).

To fix the notation:
T1: Human Nectin-4 (human, UniProt Q96NY8 32-349, limits assumed)
T1 construct: Protein immobilised on the SPR chip; also called target protein
T1 sequence: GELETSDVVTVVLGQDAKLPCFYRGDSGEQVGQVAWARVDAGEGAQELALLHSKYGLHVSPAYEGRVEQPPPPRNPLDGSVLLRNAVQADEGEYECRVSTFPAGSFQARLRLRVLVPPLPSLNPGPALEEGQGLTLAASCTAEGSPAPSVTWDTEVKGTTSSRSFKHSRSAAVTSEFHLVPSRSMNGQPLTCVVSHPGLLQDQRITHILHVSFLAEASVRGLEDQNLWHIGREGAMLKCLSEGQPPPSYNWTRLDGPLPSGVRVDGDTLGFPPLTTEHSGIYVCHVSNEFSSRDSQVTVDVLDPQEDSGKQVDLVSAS

The target of one assay is T1, Human Nectin-4. Nature of the assay: Table 2B (DELFIA or SPR).
Ac-CEYDEEFFLGLKRLRGGDICYYIKKKFKKVPELCIEEILEKLGC-OH (designed binder, disulfide 1-34, 20-44) [C68] yielded an equilibrium dissociation constant (Kd) of 2.66 nM.
On to Ac-CEYDEQFFTGLKRLRGGDICYYIKKKFKKVPKLCIEEILDKLGC-OH (designed binder, disulfide 1-34, 20-44) [C71], for which the Kd is 2.85 nM.
In turn, Ac-CEYDEEFFLALKRLRGGDICYYIKKKFKKVPKLCIEEILDKLGC-OH (designed binder, disulfide 1-34, 20-44) [C78] yielded a Kd of 0.49 nM.
Same read-out and setting: the value for Ac-CEYDEEFFTALKRLRGGDICYYIKKKFKKVPKLCIEEILEKLGC-OH (designed binder, disulfide 1-34, 20-44) [C79] was 0.38 nM.
For Ac-CEYDEEFFLALKRLRGGDICYYIKKKFKKVPKLCIEEILEKLGC-OH (designed binder, disulfide 1-34, 20-44) [C77], the dissociation constant Kd came out at 0.58 nM.
Ac-CEYDEKFFTGLKRLRGGDICYYIKKKFKKVPKLCIEEILDKLGC-OH (designed binder, disulfide 1-34, 20-44) [C70] had a Kd of 2.2 nM.
On to Ac-CEYDEEFFKALKRLRGGDICYYIKKKFKKVPKLCIEEILDKLGC-OH (designed binder, disulfide 1-34, 20-44) [C81], for which the Kd came out at 0.43 nM.
Molecule Ac-CEYDEEFFKGLKRLRGGDICYYIKKKFKKVPKLCIEEILEKLGC-OH (designed binder, disulfide 1-34, 20-44) [C69] yielded a dissociation constant Kd of 1.86 nM.
For the molecule Ac-CEYDEEFFKGLKRLRGGDICYYIKKKFKKVPKLCIEEILDKLGC-OH (designed binder, disulfide 1-34, 20-44) [C80], the affinity, expressed as Kd, was 2.7 nM.
Same read-out and setting: the value for Ac-CEYDEEFFKALKRLRGGDICYYIKKKFKKVPKLCIEEILEKLGC-OH (designed binder, disulfide 1-34, 20-44) [C76] was 0.52 nM.
In turn, Ac-CEYDEQFFTALKRLRGGDICYYISAQFNTLPDLCIEEILENLGC-OH (designed binder, disulfide 1-34, 20-44) [C100] yielded a Kd of 4.8 nM.
Take Ac-CEYDEQFFTALARLRGGDICYYIQEQFATVPGLCIEEILDQLGC-NH2 (designed binder, disulfide 1-34, 20-44) [C128]: the affinity, expressed as Kd, was 10.1 nM.
As to {Biotin-PEG4″}-CEYDEQFFTALSSLRGGDICYYIQEQFANVPGICIEEILDNLGCS (designed binder, disulfide 1-34, 20-44) [C139], the Kd was found to be 25.2 nM.
On the same count and under the same terms, under {Biotin-PEG4″}-CEYDEEFFTALKKLRGGDICYYIQQAFNYLPGICIEEILDNLGC (designed binder, disulfide 1-34, 20-44) [C107] stands 3.38 nM.
The molecule {Biotin-PEG4″}-CEYDEEFFTALARLRGGDICYYIQA[hydroxy‑norleucine]FQYLPGLCIEEILDNLGCS-OH (designed binder, disulfide 1-34, 20-44) [C173] yielded a dissociation constant Kd of 5 nM.
The same measure, in the same setting: under {Biotin-PEG4″}-CEYDEQFFTALARLRGGDICYYIQEQFATVPGLCIEEILDQLGCS-OH (designed binder, disulfide 1-34, 20-44) [C131] stands 12.4 nM; under {Biotin-PEG4″}-CEYDEEFFTALARLRGDDICSYIQAKFQYLPGLCIEEILDNLGCS-OH (designed binder, disulfide 1-34, 20-44) [C143], 0.55 nM.
On to {Biotin-PEG4″}-CEYDEEFFTALARLRGGDICQYIQAKFQYLPGQCIEEILDNLGCS (designed binder, disulfide 1-34, 20-44) [C149], for which the affinity, expressed as Kd, was 0.75 nM.
On the same count and under the same terms, the value for {Biotin-PEG4″}-CEYDEQFFTALKRLRGADICSYIQASFQYLPGLCIEEILDNLGCS (designed binder, disulfide 1-34, 20-44) [C185] was 1 nM.
For the molecule Ac-CEYDEEFFTALKKLRGGDICYYIQQAFNYLPGICIEEILDNLGC-OH (designed binder, disulfide 1-34, 20-44) [C104], the Kd was 3.7 nM.
The molecule Ac-CEYDEEFFTALSRLRGGDICYYIQQAFQYLPGLCIEEILDNLGC-NH2 (designed binder, disulfide 1-34, 20-44) [C132] displayed a Kd of 30.1 nM.
Take {Biotin-PEG4″}-CEYDEEFFTALA[Cit]LRGDDICSYIQA[hydroxy‑norleucine]FQYLPGLCIEEILDNLGCS-OH (designed binder, disulfide 1-34, 20-44) [C170]: the Kd turned out to be 8.8 nM.
{Biotin-PEG4″}-CEYDEEFFTALARLRGGDICYYIQA[hydroxy‑norleucine]FQYLPGLCIEEILDNLGCS-OH (designed binder, disulfide 1-34, 20-44) [C164]: the Kd was found to be 5 nM.
Consider {Biotin-PEG4″}-CEYDEEFFTALKRLRGGDICEYIQA[Nle]FQYLPGLCIEEILDNLGCS-OH (designed binder, disulfide 1-34, 20-44) [C199], for which the Kd was 3.5 nM.
Ac-CEYDEQFFTALSSLRGGDICYYIQEQFANVPGICIEEILDNLGC (designed binder, disulfide 1-34, 20-44) [C136]: binding was characterised by a dissociation constant (Kd) of 36.5 nM.
The molecule {Biotin-PEG4″}-CEYDEQFFTALKRLRGGDICYYISAQFNTLPDLCIEEILENLGC-OH (designed binder, disulfide 1-34, 20-44) [C103] registered an equilibrium dissociation constant (Kd) of 6.6 nM.
Molecule {Biotin-PEG4″}-CEYDEEFFTALA[Cit]LRGGDICEYIQAKFQYLPGLCIEEILDNLGCS-OH (designed binder, disulfide 1-34, 20-44) [C171] returned a Kd of 2.2 nM.
Same read-out and setting: the value for {Biotin-PEG4″}-CEYDEEFFTALA[Cit]LRGGDICYYIQAKFQYLPGLCIEEILDNLGCS-OH (designed binder, disulfide 1-34, 20-44) [C163] was 1.9 nM; that for {Biotin-PEG4″}-CEYDEEFFTALA[Cit]LRGDDICSYIQAKFQYLPGLCIEEILDNLGCS-OH (designed binder, disulfide 1-34, 20-44) [C172] was 1.8 nM; that for {Biotin-PEG4″}-CDYDEEFFTALA[Cit]LRGGDICEYIQAKFQYLPGLCIEEILDNLGCS-OH (designed binder, disulfide 1-34, 20-44) [C176] was 1.3 nM.
{Biotin-PEG4″}-CEYDEEFFTALA[Cit]LRGGDICSYIQAKFQYLPGLCIEEILDNLGCS-OH (designed binder, disulfide 1-34, 20-44) [C175]: binding was characterised by a dissociation constant (Kd) of 2.3 nM.
The molecule Ac-CEYDEQFFTALKALRGGDICYYIQASFNYLPDLCIEEILDNLGC-NH2 (designed binder, disulfide 1-34, 20-44) [C112] showed a Kd of 6.24 nM.

In a further assay the target is T1, Human Nectin-4. Description: SPR, Biacore T200, target immobilised, 1:1 model. The procedure:
Surface plasmon resonance (SPR) analyses were performed using Biacore T200 (GE Healthcare). Target protein (“ligand”) was immobilized to a CM5 Series S sensor chip (Cytiva) using amine-coupling chemistry. Running buffer was 0.05% surfactant P20 in HEPES buffered saline (HBS-P), pH 7.4 (Cytiva). Immobilization was performed at 25° C. Carboxyl groups in each flow cell were activated using a 1:1 mixture of 0.4 M 1-ethyl-3-(3-dimethylaminopropyl)-carbodiimide in water (EDC) and 0.1 M N-hydroxysuccinimide in water (NHS) for 7 minutes. The ligand was prepared in 10 mM sodium acetate pH 5 (Cytiva). Pulsatile injections were made to target a specific immobilization level. Any remaining amine-reactive esters on the chip surface were blocked with a 7-minute injection of 1 M ethanolamine, pH 8.5. Three 10-second pulses of 50 mM sodium hydroxide were then made to remove any unbound ligand. Reference cells were modified using amine coupling chemistry, omitting ligand injection.
Increase in signal (RU) is proportional to an increase in binding events between the analyte and ligand surface. The injection was then stopped, and dissociation was measured. […] Measured association (kₐ, 1/Ms⁻¹) and dissociation (kd, s⁻¹) were fit to a 1:1 binding model to calculate a dissociation equilibrium constant, KD(M) for each analyte.
(In general: SPR reads the build-up and loss of mass on a sensor chip optically.)
As for {Biotin-PEG4″}-CEYDEEFFTALARLRGDDICSYIQAKFQYLPGLCIEEILDNLGCS-OH (designed binder, disulfide 1-34, 20-44) [C143], the equilibrium dissociation constant (Kd) is 0.238 nM.
{Biotin-PEG4″}-CEYDEEFFTALARLRGGDICQYIQAKFQYLPGQCIEEILDNLGCS (designed binder, disulfide 1-34, 20-44) [C149] showed a Kd of 0.297 nM.
Same read-out and setting: under {Biotin-PEG4″}-CEYDEQFFTALKRLRGADICSYIQASFQYLPGLCIEEILDNLGCS (designed binder, disulfide 1-34, 20-44) [C185] stands 0.371 nM; under {Biotin-PEG4″}-CDYDEQFFTALA[Cit]LRGGDICEYIQA[Lys(Me3)]FQYLPGLCIEEILDNLGCS-OH (designed binder, disulfide 1-34, 20-44) [C259], 0.226 nM.
